The text below walks through data of article PMC6384864, “Identification of a Novel Specific Cucurbitadienol Synthase Allele in Siraitia grosvenorii Correlates with High Catalytic Efficiency” (Molecules, 2019).

For data set [1], the system named is T1, CC(C)=CCC/C(C)=C/CC/C(C)=C/CC/C=C(\C)CC/C=C(\C)CC[C@@H]1OC1(C)C.
T1 construct: full length, 759 residues; yeast codon-optimised in pCEV-G4-Km, S. cerevisiae BY4742, no tag told
The data set is described as follows: GC-MS of reaction product, yeast homogenate (Methods; Results text says purified variants). In kind it is biochemical, Siraitia grosvenorii. As to conditions: 30 °C, pH 7.0, 100 mM sodium phosphate, 0.1% Triton X-100, natural allele 50C573L.

For data set [2] the test system is unchanged. The description is as above. In kind it is biochemical, Siraitia grosvenorii. The note with it: 30 °C, pH 7.0, 100 mM sodium phosphate, 0.1% Triton X-100, allele 50R573L. An excerpt:
GC-MS of reaction product, yeast homogenate (Methods; Results text says purified variants) on SgCS (cucurbitadienol synthase, wild type 50R573L)

SgCS (cucurbitadienol synthase, wild type 50R573L) (Siraitia grosvenorii; R50C), sequence (chain, as listed by the source R50C): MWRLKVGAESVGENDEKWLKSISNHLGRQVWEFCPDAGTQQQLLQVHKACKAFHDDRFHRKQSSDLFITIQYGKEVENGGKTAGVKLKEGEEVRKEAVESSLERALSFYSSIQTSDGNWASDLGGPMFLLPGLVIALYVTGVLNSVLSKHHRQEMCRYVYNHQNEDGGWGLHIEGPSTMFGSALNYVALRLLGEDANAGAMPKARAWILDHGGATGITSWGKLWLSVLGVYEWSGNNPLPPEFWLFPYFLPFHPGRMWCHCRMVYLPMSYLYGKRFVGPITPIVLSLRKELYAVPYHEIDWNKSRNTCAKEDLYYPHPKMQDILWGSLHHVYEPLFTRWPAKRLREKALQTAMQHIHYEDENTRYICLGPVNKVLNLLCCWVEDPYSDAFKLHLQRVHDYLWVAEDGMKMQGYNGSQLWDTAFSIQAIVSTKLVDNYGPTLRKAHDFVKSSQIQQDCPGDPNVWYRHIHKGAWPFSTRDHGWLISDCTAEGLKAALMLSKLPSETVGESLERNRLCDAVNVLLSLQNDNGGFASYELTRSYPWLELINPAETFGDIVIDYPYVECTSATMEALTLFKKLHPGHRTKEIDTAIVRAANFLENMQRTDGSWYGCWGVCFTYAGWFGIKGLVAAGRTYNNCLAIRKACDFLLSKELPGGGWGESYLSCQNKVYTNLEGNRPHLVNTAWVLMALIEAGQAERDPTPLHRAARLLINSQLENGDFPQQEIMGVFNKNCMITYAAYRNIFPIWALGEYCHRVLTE
SgCS (cucurbitadienol synthase, wild type 50R573L) (Siraitia grosvenorii), sequence (chain, as listed by the source): as the sequence (chain, as listed by the source R50C) above, with C50R counted along it

The term Km denotes the concentration of substrate that gives half-maximal velocity. Broadly, the kcat is the number of substrate molecules converted per active site and unit of time at saturation. A word on the kcat/Km: it is the turnover number divided by the Michaelis constant. On to “SgCS (cucurbitadienol synthase, wild type 50R573L) (Siraitia grosvenorii; R50C)”, for which, in data set [1], the Km amounted to 0.32 µM, the kcat was found to be 0.0128 s⁻¹ and the kcat/Km came out at 40200 M⁻¹ s⁻¹.

With “SgCS (cucurbitadienol synthase, wild type 50R573L) (Siraitia grosvenorii)”, in data set [2], the Michaelis-Menten constant (Km) was determined as 0.29 µM, the kcat came to 0.0147 s⁻¹ and the kcat/Km worked out at 49700 M⁻¹ s⁻¹.
